What was measured:
[1] = target: T1, recombinant hGM-CSF derived from yeast (Leukine, Berlex) (human, UniProt P04141 18-144); assay: SPR (Biacore), antibody captured via immobilised protein G, rhGM-CSF injected
T1 construct: Bought product; also called yeast hGM-CSF (Leukine); yeast GM-CSF (Leukine)
Description: To calculate affinity constants for recombinant hGM-CSF binding to anti-hGM-CSF monoclonal antibodies, surface plasmon resonance (SPR) was performed on a Biacore System™ (FIG. 2).
In the method to analyze the interaction between antibodies and antigens, the purified antibodies were captured on a sensor chip via interaction with protein G immobilized to sensor chip surface, and then recombinant antigens were injected to the sensor chip. Purified antibodies were used and recombinant hGM-CSF was used as an antigen.

[2] = target: recombinant hGM-CSF expressed in E. coli (Fa. Biomol #2514) (human, UniProt P04141 18-144); assay: cell-based or functional assay
recombinant hGM-CSF expressed in E. coli (Fa. Biomol #2514), sequence (P04141 18-144 limits assumed): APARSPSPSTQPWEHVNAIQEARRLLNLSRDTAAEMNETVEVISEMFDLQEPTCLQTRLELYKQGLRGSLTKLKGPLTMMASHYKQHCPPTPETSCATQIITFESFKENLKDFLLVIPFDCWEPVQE

T1 sequence (P04141 other isoform, or with tags, fused parts or gaps limits assumed): as the sequence (P04141 18-144 limits assumed) above, with R23L counted along it

Kd [1] [nM]	IC50 in TF-1 assay, hGM-CSF (E. coli) at 1.0 ng/ml final concentration [2] [nM]	Ratio: Reference antibody to antibody of interest (IC50 of BVD2-21C11 over IC50 of EV1018, TF-1 assay) [2]	Binder
0.23	0.02	413	EV1018 (antibody, human IgG1, lambda, also called wild-type EV1018; WT EV1018) heavy: not shown light: QSALTQETSVSGTVGQKVTLSCIGNNNNIGSHAVGWYQQISRGAPKMVLFGRSPPSGVPDRFSGSKSGTTASLIISGLQPEDEADYYCSTWDSSLSAVVFGGGTKLTVLRQPKAAPSVTLFPPSSEELQANKATLVCLISDFYPGAVTVAWKADSSPVKAGVETTTPSKQSNNKYAASSYLSLTPEQWKSHRSYSCQVTHEGSTVEKTVAPTECS
0.36	–	–	EV1019 (antibody, human IgG1, lambda, V domains shown, also called EV1019 Batch 1; EV1019 Batch 2) VH: QAQLVESGGGVVKPGGSLRLSCISSKFTFSSHAMHWVRQAPGKGLEWVAVIWHDGSKKYYADSVKGRFSVSRDNSKNTLFLQMDSLRAEDTAVYFCGKEWVGGTCDSWGQGTLVIVSS VL: QPALTQEASVSGTVGQTVTLLCSGNSSNIGSYAVGWYQQISRGAPKIVVFGKSPASGIPDRFSGSKSGTTASLLVSGLQPEDEADYYCSTWDSRLSAVLFGGGTKLTVLR

— patent US20140205611A1 (EVEC, published 2014)
